From patent US20240400705A1 (SYNERGY IMT, published 2024) come the findings set out here.

The target in assay [1] is T1, TROP2 on DLD1 colon cancer cells (UniProt P09758 27-323, limits assumed).
T1 sequence (looked up): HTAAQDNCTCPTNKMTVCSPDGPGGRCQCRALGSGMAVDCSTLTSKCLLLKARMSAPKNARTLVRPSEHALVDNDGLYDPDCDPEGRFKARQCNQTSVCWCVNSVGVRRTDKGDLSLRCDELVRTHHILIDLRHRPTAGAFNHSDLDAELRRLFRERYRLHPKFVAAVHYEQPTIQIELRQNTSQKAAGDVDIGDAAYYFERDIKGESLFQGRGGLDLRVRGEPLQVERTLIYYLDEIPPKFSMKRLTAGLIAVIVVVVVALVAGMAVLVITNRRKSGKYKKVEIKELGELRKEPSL
The experiment in a line: cell-based or functional assay.

Assay [2] has as its target T1, TROP2 on DLD1 colon cancer cells. Kind of assay: flow cytofluorimetry on DLD1 colon tumor cells, 250 nM; bar = MFI, marker = percent positive; the molecule also carries a b2GP1 D5 domain for phosphatidylserine. The procedure: (§1) The binding of the multispecific recombinant antigen binding molecules to expanded T cells (FIG. 6D) and to the colon tumor cell line DLD1 (FIG. 6A) was determined by flow cytofluorimetry. Binding was conducted with a saturating concentration (250 nM). The T cells were expanded in culture from immunocult ([…] Technologies) stimulated peripheral blood mononuclear cells that were maintained in culture for at least 30 days. Multispecific recombinant antigen binding molecules were produced in HEK293 cells and one-step purified by FPLC using a HiTrap Protein A column. The expression of various T cell markers or tumor antigens was determined using commercial antibodies specific for Trop2, CD137, MICA/MICB, Tim4, Tim1 (all purchased from Biolegend). […] Greater levels of binding to DLD1 are associated with binding to PS and in particular bivalent binding to PS (e.g., 17v7-18v9).

The target in assay [3] is CD137 on cells (CD137 reporter cell line, Promega; expanded T cells) (UniProt Q07011 24-255, limits assumed). The experiment in a line: cell-based or functional assay.
A further assay addresses T2, CD3 on T cells (UniProt P07766 23-207).
T2 construct: whole, on cells; CD3 is a complex; also called T cell CD3
The experiment in a line: flow cytofluorimetry on expanded T cells, 250 nM; bar = MFI, marker = percent positive. The procedure: as §1

Assay [4] concerns the target T1, TROP2 on DLD1 colon cancer cells. Kind of assay: flow cytofluorimetry on DLD1 colon tumor cells, 250 nM; bar = MFI, marker = percent positive. The procedure:
as §1

Sequence of CD137 on cells (CD137 reporter cell line, Promega; expanded T cells) (Q07011 24-255 limits assumed): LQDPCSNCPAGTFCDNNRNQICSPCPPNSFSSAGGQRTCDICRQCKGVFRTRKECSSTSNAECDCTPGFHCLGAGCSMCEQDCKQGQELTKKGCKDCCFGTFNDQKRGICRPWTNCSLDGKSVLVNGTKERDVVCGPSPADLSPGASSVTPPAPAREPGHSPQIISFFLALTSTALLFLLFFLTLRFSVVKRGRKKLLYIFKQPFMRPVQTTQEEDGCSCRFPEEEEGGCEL
T2 sequence (P07766 23-207): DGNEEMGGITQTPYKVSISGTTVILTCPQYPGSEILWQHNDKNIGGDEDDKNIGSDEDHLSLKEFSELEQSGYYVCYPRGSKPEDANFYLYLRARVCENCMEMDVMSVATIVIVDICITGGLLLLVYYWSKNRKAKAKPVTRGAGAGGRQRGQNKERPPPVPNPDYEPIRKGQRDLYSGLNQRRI

B1: TetrAx 17v17-18v23 (PS x Trop2 x CD3) (bispecific antibody)
light: DIQLTQSPSSLSASVGDRVSITCKASQDVSIAVAWYQQKPGKAPKLLIYSASYRTTGVPDRFSGSGSGTDFTLTISSLQPEDFAVYYCQQHYITPLTFGAGTKVEIKRTVAAPSVFIFPPSDEQLKSGTASVVCLLNNFYPREAKVQWKVDNALQSGNSQESVTEQDSKDSTYSLSSTLTLSKADYEKQKVYACEVTHQGLSSPVTKSFLRGECGGPAGGGGGTHTCPPCPAPEAAGGPSVFLFPPKPKDTLMISRTPEVTCVVVDVSHEDPEVKFNWYVDGVEVHNAKTKPREEQYNSTYRVVSVLTVLHQDWLNGKEYKCKVSNKALPAPIEKTISKAKGQPREPQVCTLPPSRDELTKNQVSLSCAVKGFYPSDIAVEWESNGQPENNYKTTPPVLDSDGSFFLVSKLTVDKSRWQQGNVFSCSVMHEALHNHYTQKSLSLSPGKGGGGGGASCKVPVKKATVVYQGERVKIQEKFKNGMLHGDKVSFFCKNKEKKCSYTEDAQCIDGTIEVPKCFKEHSSLAFWKTDASDVKPC
heavy: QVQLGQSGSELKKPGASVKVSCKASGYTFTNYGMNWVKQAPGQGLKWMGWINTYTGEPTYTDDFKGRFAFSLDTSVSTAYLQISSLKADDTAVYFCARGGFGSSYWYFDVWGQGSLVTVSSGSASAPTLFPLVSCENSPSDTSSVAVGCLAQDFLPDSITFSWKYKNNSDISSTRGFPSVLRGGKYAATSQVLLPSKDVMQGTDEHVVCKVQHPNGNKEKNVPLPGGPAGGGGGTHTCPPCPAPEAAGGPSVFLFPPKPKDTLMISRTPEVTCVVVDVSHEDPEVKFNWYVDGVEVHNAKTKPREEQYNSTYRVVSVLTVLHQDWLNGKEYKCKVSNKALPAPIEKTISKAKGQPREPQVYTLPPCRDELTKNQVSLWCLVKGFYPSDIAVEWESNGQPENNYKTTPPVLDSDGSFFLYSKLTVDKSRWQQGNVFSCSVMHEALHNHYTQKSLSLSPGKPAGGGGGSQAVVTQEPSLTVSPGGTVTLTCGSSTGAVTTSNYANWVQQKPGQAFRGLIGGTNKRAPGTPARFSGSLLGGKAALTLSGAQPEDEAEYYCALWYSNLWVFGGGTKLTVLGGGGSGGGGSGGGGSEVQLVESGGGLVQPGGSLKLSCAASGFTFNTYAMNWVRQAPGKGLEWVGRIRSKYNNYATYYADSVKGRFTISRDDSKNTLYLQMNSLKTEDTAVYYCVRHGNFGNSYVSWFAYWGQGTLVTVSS
For the molecule B1, in assay [1], the “DLD1 cytotoxicity EC50 (18 h, T cells)” value was 0.5 pM and the “DLD1 cytotoxicity EC50 in a 3D tumor model (spheroids, T cells 2:1)” value stood at 21 pM.

B2: 17v17-18v22 (bispecific antibody)
light chain 17v17: DIQLTQSPSSLSASVGDRVSITCKASQDVSIAVAWYQQKPGKAPKLLIYSASYRTTGVPDRFSGSGSGTDFTLTISSLQPEDFAVYYCQQHYITPLTFGAGTKVEIKRTVAAPSVFIFPPSDEQLKSGTASVVCLLNNFYPREAKVQWKVDNALQSGNSQESVTEQDSKDSTYSLSSTLTLSKADYEKQKVYACEVTHQGLSSPVTKSFLRGECGGPAGGGGGTHTCPPCPAPEAAGGPSVFLFPPKPKDTLMISRTPEVTCVVVDVSHEDPEVKFNWYVDGVEVHNAKTKPREEQYNSTYRVVSVLTVLHQDWLNGKEYKCKVSNKALPAPIEKTISKAKGQPREPQVCTLPPSRDELTKNQVSLSCAVKGFYPSDIAVEWESNGQPENNYKTTPPVLDSDGSFFLVSKLTVDKSRWQQGNVFSCSVMHEALHNHYTQKSLSLSPGKGGGGGGASCKVPVKKATVVYQGERVKIQEKFKNGMLHGDKVSFFCKNKEKKCSYTEDAQCIDGTIEVPKCFKEHSSLAFWKTDASDVKPC
heavy chain 18v22: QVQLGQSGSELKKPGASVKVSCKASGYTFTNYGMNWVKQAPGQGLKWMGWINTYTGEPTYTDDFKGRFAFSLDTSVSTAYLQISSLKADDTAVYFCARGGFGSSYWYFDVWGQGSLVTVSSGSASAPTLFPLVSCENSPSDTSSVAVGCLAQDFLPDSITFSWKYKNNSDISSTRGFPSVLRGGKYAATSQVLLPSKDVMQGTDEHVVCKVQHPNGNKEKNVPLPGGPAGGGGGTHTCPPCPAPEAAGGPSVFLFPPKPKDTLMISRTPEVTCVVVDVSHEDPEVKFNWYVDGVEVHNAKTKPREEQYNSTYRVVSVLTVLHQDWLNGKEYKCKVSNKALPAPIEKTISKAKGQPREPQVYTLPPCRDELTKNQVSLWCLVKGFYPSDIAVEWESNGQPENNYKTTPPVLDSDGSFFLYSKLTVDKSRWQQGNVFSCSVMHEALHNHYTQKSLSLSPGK
notes: also called TROP2 - PS (control)
Take B2: the binding result in assay [2] was “binds”.

B3: TetrAx 17v9-18 (Trop2 x CD3) (bispecific antibody)
light: QAVVTQEPSLTVSPGGTVTLTCGSSTGAVTTSNYANWVQEKPGQAFRGLIGGTNKRAPGTPARFSGSLLGGKAALTLSGAQPEDEAEYYCALWYSNLWVFGCGTKLTVLRTVAAPSVFIFPPSDEQLKSGTASVVCLLNNFYPREAKVQWKVDNALQSGNSQESVTEQDSKDSTYSLSSTLTLSKADYEKHKVYACEVTHQGLSSPVTKSFNRGECGGPAGGGGGTHTCPPCPAPEAAGGPSVFLFPPKPKDTLMISRTPEVTCVVVDVSHEDPEVKFNWYVDGVEVHNAKTKPREEQYNSTYRVVSVLTVLHQDWLNGKEYKCKVSNKALPAPIEKTISKAKGQPREPQVCTLPPSRDELTKNQVSLSCAVKGFYPSDIAVEWESNGQPENNYKTTPPVLDSDGSFFLVSKLTVDKSRWQQGNVFSCSVMHEALHNHYTQKSLSLSPGKGGGGGGQVQLGQSGSELKKPGASVKVSCKASGYTFTSYAMNWVRQAPGQGLKWMGWINTYTGETPYTDDFKGRFAFSLDTSVSTAYLQISSLKADDTAVYFCARGGFGSSYWYFDVWGQGTLVTVSSGGGGSGGGGSGGGGSDIQLTQSPSSLSASVGDRVSITCKASQDVSIAVAWYQQKPGKAPKLLIYSASYRYTGVPDRFSGSGSGTDFTLTISSLQPEDFAVYYCQQHYITPLTFGAGTKVEIK
heavy: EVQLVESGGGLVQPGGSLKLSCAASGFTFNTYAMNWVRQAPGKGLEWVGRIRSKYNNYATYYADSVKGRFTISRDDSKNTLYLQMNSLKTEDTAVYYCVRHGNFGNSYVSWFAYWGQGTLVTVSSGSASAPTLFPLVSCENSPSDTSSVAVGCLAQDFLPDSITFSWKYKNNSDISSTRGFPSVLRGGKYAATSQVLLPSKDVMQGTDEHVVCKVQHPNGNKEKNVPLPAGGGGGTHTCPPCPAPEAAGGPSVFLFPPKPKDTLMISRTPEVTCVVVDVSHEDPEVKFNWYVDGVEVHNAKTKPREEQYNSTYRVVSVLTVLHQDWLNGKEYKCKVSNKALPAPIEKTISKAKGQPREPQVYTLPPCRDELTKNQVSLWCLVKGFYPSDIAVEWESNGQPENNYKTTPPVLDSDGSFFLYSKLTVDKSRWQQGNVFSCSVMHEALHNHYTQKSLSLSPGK
With B3, the “DLD1 cytotoxicity EC50 (18 h, T cells)” value in assay [1] is about 3 pM.

B4: TetrAx 20v8-18v26 (Trop2 x CD137, two CD137L domains) (bispecific antibody)
light: DIQLTQSPSSLSASVGDRVSITCKASQDVSIAVAWYQQKPGKAPKLLIYSASYRTTGVPDRFSGSGSGTDFTLTISSLQPEDFAVYYCQQHYITPLTFGAGTKVEIKRTVAAPSVFIFPPSDEQLKSGTASVVCLLNNFYPREAKVQWKVDNALQSGNSQESVTEQDSKDSTYSLSSTLTLSKADYEKQKVYACEVTHQGLSSPVTKSFLRGECGGPAGGGGGTHTCPPCPAPEAAGGPSVFLFPPKPKDTLMISRTPEVTCVVVDVSHEDPEVKFNWYVDGVEVHNAKTKPREEQYNSTYRVVSVLTVLHQDWLNGKEYKCKVSNKALPAPIEKTISKAKGQPREPQVCTLPPSRDELTKNQVSLSCAVKGFYPSDIAVEWESNGQPENNYKTTPPVLDSDGSFFLVSKLTVDKSRWQQGNVFSCSVMHEALHNHYTQKSLSLSPGKGGGGGGMFAQLVAQNVLLIDGPLSWYSDPGLAGVSLTGGLSYKEDTKELVVAKAGVYYVFFQLELRRVVAGEGSGSVSLALHLQPLRSAAGAAALALTVDLPPASSEARNSAFGFQGRLLHLSAGQRLGVHLHTEARARHAWQLTQGATVLGLFRVTP
heavy: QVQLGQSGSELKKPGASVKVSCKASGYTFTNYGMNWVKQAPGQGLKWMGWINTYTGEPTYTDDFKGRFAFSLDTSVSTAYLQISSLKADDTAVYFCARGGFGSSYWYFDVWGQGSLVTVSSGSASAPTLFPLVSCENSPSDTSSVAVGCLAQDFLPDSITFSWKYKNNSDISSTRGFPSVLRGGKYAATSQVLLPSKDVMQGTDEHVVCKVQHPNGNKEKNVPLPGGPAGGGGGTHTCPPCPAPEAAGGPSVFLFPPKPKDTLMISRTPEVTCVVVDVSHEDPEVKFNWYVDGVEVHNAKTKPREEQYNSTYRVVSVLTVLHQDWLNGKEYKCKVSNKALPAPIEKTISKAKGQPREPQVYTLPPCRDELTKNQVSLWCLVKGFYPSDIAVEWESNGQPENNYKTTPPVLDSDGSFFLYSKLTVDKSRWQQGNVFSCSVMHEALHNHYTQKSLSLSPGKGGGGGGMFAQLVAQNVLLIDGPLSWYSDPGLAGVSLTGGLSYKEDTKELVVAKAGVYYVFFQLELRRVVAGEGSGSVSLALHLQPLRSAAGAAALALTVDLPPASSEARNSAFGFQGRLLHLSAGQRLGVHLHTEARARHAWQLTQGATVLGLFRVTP
notes: also called dual CD137L TetrAx
For B4, in assay [3], the “CD137 signaling relative to the TetrAx with a single CD137L domain” value was 3 fold and the “T cell DLD1 cytotoxicity EC50” value was 300 pM. Also, in the assay with CD3 on T cells, the binding result is on record as “no binding (tested: 250 nM)”.

B5: TetrAx 20v8-18v22 (Trop2 x CD137, one CD137L domain) (bispecific antibody)
light: DIQLTQSPSSLSASVGDRVSITCKASQDVSIAVAWYQQKPGKAPKLLIYSASYRTTGVPDRFSGSGSGTDFTLTISSLQPEDFAVYYCQQHYITPLTFGAGTKVEIKRTVAAPSVFIFPPSDEQLKSGTASVVCLLNNFYPREAKVQWKVDNALQSGNSQESVTEQDSKDSTYSLSSTLTLSKADYEKQKVYACEVTHQGLSSPVTKSFLRGECGGPAGGGGGTHTCPPCPAPEAAGGPSVFLFPPKPKDTLMISRTPEVTCVVVDVSHEDPEVKFNWYVDGVEVHNAKTKPREEQYNSTYRVVSVLTVLHQDWLNGKEYKCKVSNKALPAPIEKTISKAKGQPREPQVCTLPPSRDELTKNQVSLSCAVKGFYPSDIAVEWESNGQPENNYKTTPPVLDSDGSFFLVSKLTVDKSRWQQGNVFSCSVMHEALHNHYTQKSLSLSPGKGGGGGGMFAQLVAQNVLLIDGPLSWYSDPGLAGVSLTGGLSYKEDTKELVVAKAGVYYVFFQLELRRVVAGEGSGSVSLALHLQPLRSAAGAAALALTVDLPPASSEARNSAFGFQGRLLHLSAGQRLGVHLHTEARARHAWQLTQGATVLGLFRVTP
heavy: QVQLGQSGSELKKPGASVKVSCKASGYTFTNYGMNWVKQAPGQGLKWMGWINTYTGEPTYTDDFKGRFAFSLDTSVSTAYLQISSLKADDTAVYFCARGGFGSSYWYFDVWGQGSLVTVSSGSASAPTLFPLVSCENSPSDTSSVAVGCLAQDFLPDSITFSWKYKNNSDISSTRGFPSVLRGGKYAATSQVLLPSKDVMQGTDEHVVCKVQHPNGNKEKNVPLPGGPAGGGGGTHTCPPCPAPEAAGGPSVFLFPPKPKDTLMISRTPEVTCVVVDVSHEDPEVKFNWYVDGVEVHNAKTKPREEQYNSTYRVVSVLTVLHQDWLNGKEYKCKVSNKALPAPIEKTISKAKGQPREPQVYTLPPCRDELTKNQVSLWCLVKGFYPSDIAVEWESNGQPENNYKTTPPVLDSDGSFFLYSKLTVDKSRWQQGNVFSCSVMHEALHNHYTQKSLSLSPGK
notes: CD137L domain is residues 90 to 242 (THD)
In the case of B5, in assay [3], the “T cell DLD1 cytotoxicity” value came to 40 fold. The figures for the binding result (in the assay with CD3 on T cells; in assay [4]) were “no binding (tested: 250 nM)” and “binds”, respectively.

B6: TetrAx 17v16-18v23 (Trop2 x CD3) (bispecific antibody)
light: DIQLTQSPSSLSASVGDRVSITCKASQDVSIAVAWYQQKPGKAPKLLIYSASYRTTGVPDRFSGSGSGTDFTLTISSLQPEDFAVYYCQQHYITPLTFGAGTKVEIKRTVAAPSVFIFPPSDEQLKSGTASVVCLLNNFYPREAKVQWKVDNALQSGNSQESVTEQDSKDSTYSLSSTLTLSKADYEKQKVYACEVTHQGLSSPVTKSFLRGECGGPAGGGGGTHTCPPCPAPEAAGGPSVFLFPPKPKDTLMISRTPEVTCVVVDVSHEDPEVKFNWYVDGVEVHNAKTKPREEQYNSTYRVVSVLTVLHQDWLNGKEYKCKVSNKALPAPIEKTISKAKGQPREPQVCTLPPSRDELTKNQVSLSCAVKGFYPSDIAVEWESNGQPENNYKTTPPVLDSDGSFFLVSKLTVDKSRWQQGNVFSCSVMHEALHNHYTQKSLSLSPGK
heavy: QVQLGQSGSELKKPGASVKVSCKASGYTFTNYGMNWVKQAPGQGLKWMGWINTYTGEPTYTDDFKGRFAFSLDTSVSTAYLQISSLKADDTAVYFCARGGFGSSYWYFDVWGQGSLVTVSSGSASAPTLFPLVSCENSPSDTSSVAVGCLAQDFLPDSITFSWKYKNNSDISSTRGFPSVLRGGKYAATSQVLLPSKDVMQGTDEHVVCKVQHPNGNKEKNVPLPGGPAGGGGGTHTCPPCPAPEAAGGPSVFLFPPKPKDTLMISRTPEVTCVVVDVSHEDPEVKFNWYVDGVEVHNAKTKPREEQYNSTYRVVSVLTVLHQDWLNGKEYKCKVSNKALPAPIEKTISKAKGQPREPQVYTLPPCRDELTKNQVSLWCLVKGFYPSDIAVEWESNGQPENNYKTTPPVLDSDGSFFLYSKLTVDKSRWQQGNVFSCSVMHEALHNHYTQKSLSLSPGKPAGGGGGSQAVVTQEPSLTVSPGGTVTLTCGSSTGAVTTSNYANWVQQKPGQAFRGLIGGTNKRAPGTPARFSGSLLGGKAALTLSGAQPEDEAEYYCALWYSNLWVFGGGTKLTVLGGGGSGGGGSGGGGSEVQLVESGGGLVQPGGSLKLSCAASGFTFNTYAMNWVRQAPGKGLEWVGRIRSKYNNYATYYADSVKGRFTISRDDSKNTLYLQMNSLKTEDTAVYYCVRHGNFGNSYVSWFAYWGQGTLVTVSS
On to B6, for which the “DLD1 cytotoxicity EC50 (18 h, T cells)” value in assay [1] was determined as 8 pM.
